# Assay results taken from paper doi:10.1101/2025.05.03.652001.
# Molecular target: E. coli lipoic acid ligase (LplA) variant A48N on the W37V background (E. coli)
# Assay: SEC-SAXS; SEC-SAXS of purified LplA variant with lipoyl-AMS; DENSS ab initio envelope fitted with the major conformer; high protein concentrations required for SAXS; dimer model generated by AlphaFold3
substance,measurement,value
E. coli lipoic acid ligase (LplA) variant A48N on the W37V background (enzyme),stoichiometry N,2
